Series [1] addresses V5-tagged KMT2D fragment (1222-1819) (UniProt O14686).
The target in another series is HA-tagged KMT2D S1331A (UniProt O14686).
Series [2] addresses HA-tagged KMT2D (full length, wild type) (UniProt O14686).

Sequence of recombinant His-AKT (MRC-PPU Reagents DU1850) (P31749 whole entry): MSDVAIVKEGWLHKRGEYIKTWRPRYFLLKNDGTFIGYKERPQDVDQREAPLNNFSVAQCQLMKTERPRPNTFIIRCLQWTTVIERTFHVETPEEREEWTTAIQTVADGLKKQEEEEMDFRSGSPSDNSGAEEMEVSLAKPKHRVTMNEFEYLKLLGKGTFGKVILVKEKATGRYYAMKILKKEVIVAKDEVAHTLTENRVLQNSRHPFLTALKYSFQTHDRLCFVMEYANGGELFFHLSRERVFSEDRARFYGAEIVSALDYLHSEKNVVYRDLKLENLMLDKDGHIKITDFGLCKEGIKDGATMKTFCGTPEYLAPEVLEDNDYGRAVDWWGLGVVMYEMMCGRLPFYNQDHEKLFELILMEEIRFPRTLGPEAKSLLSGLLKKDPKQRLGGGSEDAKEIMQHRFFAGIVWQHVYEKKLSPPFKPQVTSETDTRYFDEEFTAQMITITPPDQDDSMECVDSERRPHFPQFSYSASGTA

Consider “recombinant His-AKT (MRC-PPU Reagents DU1850)”, for which, in series [1], the “in vitro kinase assay with the KMT2D (1222-1819) fragment as substrate (FIG. 11C)” value was “The kinase assay confirmed the ability of AKT to directly phosphorylate S1331”. Also, the “in vitro kinase assay; phosphorylation detected by phospho-RXRXX(S/T) and phospho-KMT2D (S1331) antibodies” value with HA-tagged KMT2D S1331A is reported as “Mutation of serine to alanine (S1331A) completely abrogated the ability of AKT to phosphorylate KMT2D in vitro”; in series [2] it was “The kinase assay confirmed the ability of AKT to directly phosphorylate S1331”.

The record behind these values is patent US20190270997.
